Assay results: IntAct's records for PubMed 23892456

How the values were obtained:
[1] = target: nanog_mouse Nanog (UniProt Q80Z64)
[2] = target: nanog_mouse Nanog (UniProt Q80Z64); remark: listed apart in the source
[3] = target: nanog_mouse Nanog (UniProt Q80Z64); remark: listed apart in the source

Chain of nanog_mouse Nanog (Q80Z64 whole entry): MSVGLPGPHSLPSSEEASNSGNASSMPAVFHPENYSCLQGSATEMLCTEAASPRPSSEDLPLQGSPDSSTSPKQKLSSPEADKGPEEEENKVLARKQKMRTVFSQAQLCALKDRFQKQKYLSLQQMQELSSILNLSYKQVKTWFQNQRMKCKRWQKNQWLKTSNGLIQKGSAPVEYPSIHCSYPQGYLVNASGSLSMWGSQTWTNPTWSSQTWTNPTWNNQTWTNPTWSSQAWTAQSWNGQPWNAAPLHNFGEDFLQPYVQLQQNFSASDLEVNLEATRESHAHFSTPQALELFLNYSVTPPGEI
Chain of Transcription factor SOX-2 (Mus musculus), P48432 T224A (P48432 whole entry T224A): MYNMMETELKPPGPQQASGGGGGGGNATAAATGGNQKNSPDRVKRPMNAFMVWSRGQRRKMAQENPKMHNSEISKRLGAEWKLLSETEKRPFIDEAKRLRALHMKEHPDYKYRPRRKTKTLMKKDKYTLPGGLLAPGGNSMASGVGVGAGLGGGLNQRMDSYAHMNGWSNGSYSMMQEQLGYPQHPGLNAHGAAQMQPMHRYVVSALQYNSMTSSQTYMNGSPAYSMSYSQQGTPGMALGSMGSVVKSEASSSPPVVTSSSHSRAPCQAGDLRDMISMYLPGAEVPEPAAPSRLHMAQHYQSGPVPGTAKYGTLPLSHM
Chain of Transcription factor SOX-2 (Mus musculus), P48432 T217A (P48432 whole entry T217A): as the sequence (P48432 whole entry T224A) above, with T217A, A224T counted along it
Chain of Transcription factor SOX-2 (Mus musculus), P48432 S228A (P48432 whole entry S228A): as the sequence (P48432 whole entry T224A) above, with A224T, S228A counted along it
Chain of Transcription factor SOX-2 (Mus musculus), P48432 T217A;T224A;S228A (P48432 whole entry T217A/T224A/S228A): as the sequence (P48432 whole entry T224A) above, with T217A, S228A counted along it

Row | Substance | effect of a mutation on the interaction [1] | further results
1 | Transcription factor SOX-2 (Mus musculus), P48432 S228A | disrupting interaction | 
2 | Transcription factor SOX-2 (Mus musculus), P48432 T217A |  | effect of a mutation on the interaction [2]: disrupting interaction
3 | Transcription factor SOX-2 (Mus musculus), P48432 T217A;T224A;S228A |  | effect of a mutation on the interaction [3]: disrupting interaction
4 | Transcription factor SOX-2 (Mus musculus), P48432 T224A | disrupting interaction | 
